From IntAct's records for PubMed 12354775

B1: Protein naked cuticle (Drosophila melanogaster (Fruit fly)), Q9VVV9 (parent)
chain: MAGNIVKWWKHKILGGYKQFSVQECTTDSEELMYHQVRASSSCSAPPDLLLVSERDNNIQLRSPVVNIITTPPGNASGAGSKQQSHHQTNHHSSGRSHPGHTAHPQDVSSGGSHSKHLRISSTSNGKHGKYSNMQQQLPQDEDVVDAAATMQQQQHTGHAHSRHLHHHKEERIRLEEFTCDVSVEGGKSSQPLQFSFTFYDLDGHHGKITKDDIVGIVYTIYESIGKSVVVPHCGSKTINVRLTVSPEGKSKSQPVVPVPVAAGFSSSHASKLKKLPTGLAAMSKPLAGGGVGSGGASALTTSAGNRRQHRYRPRKLIKSDDEDDDSNSEKEKDAAHAPAADQPSGSGTKATGKSHHHQSQSARYHQKNNSRAEQCCTEQNTPDNGHNTYENMLNLKCCKPEVDQVDCPSHRQHHQSHPNHQMRQQDIYMKQATQRVKMLRRARKQKYQDHCLETRQRSLSVGNDSACPNRHLQLQQPPVGHPQPQSLNHKSASGSPPLGVGGGGDMMLDGVQLRQPRPHSLTPHQHQQQNQQQQQQQRKSAECWKSALNRNDLISIIRESMEKNRLCFQLNGKPQANVSPIRQPAAQQQPQQQQRQRCNTGSKIPTLITNHSPVAQQSPLSCSPPTAEPTTPSIPAAPPAIEVNGQQHHPTHPTHPSHHNHHEHPQPHIPIYHQQLAINPAVLAAQQTHNTAHNKLNLCGYDSFLHATICGGGAAAHSPPATPSNVATVQPIPKKSQKNLLQGYQRLEQSQQQQQQQRSSKDYKNYGNLIYAKLSEQLQQKDREQRRQRHKQQQHQMLQDQPKDASRSEQRPPTSNSSSAGSKIYGDAVECAHLLASEEEDLPPSPQLTSTPSKVVSTDTLIDLNDDVGEAVAEAVTEGGKQSLEAEESGQQVEVELDTSASSSMIHRYVHEHIHHHYHHFKEQQDV

Variants of: B1
Conditions: with dsh_drome dsh

Row | effect of a mutation on the interaction | Variant
1 | decreasing interaction | D201A
2 | decreasing interaction | D213V
